Measurements: the DeepSol protein solubility set

Assay: soluble on expression in E. coli; label from the status in PepcDB or PDB records

Soluble on expression in E. coli, not soluble:
MGSDKIHHHHHHSNINPSNGEGRDPLENFNRAMWKINYEVIDPHIFKPVAKGWRDYVPAPIKRSLVNIANNLDEPASFVNRLIEGDGQKAMRHFTRFWINSTFGLAGLIDWASQIKELKLENGNREFGDTLGHYGVPAGSYIMAPGYGPITPRQAVGKVVDSVYPMLSMLATPWMLTKFFVQSIDTRAQFINQEALLTNSADPYISFREAYFQNLRFKVKDGDVSDIQEQLSQEELDQID
MGSDKIHHHHHHSSDYFTTNPEVLEAIGGKVPVTINGKFPEKYFKKNATVEVTPVLRWKGGEAKGQPAVFQGEKVEGNNQTIAYKAGGSYTMKASFDYVPEMANSELYLDFKITKGKKSYTIPSVKIADGVIATSELPTAASSNASYANDAFQRIIKDAQTANIMFLIQQANLRNSELNSDDIKEFHKKVAEINADTKNYKLNNIEISAYASPDGGVELNTGLAENREANTEKYMERQLKKGKIDTNLDAKYTAQDWEGFQELVSKSNLQDKDLILRVLSMYNDPEQREAEIKNISSVYKTLADEILPQLRRARLTANYDIIGRSDDEINEAFNSDPKVLSVEELLYAATLTNDNARKEAIFTKTTQLYPNDFRAYNNLGELAFAAGDAAKAESYFKQAASKNANAPEVNANLGLCELVKGNVAAAETYLGKATGANAAGEALGNLYIKQGQYDRAVNSFGDAKTNSAAQAQILAKDYNKAKATLSAIKNPDAMTDYLMAIVGARTNNASLVSSSIKSAIAKDPSMAEKAANDREFAKYADAIK
MGSDKIHHHHHHTACETDNDSNPILNEPDTFTLNTPAYAANNVYDLKNAQTVELTCSQPDYGFPAATTYTVQASFEQDFIEATDESKANYTVLESTSPTAKINVDASELNNALLDLWTAVNGEQAELPTEPVAVYIRLKANITSSGKGVCFSNVIELPNVLISKSTSSLTPPKTMFIVGSMLDTDWKVWKPMAGVYGMDGQFYSMIYFDANSEFKFGTKENEYIGINDNRVTVTDKAGAGVSGSDNFVVENAGWYLFYVKAAVKGDDYQFTITFYPAEVYLFGNTTGGSWAFNDEWKFTVPATKDGNFVSPAMTASGEVRMCFKTDLDWWRTEFTLHDGEIFYRDFNLIDSWTEKGDGYSIQGSAGNVIHLNFTAGTGEKK
MGSDKIHHHHHHTVDNRHDPLESMNRAVFSFNEKLDEVVLEPVARGYQRFIPSPVRMIVGNFFSNLDDVVVAANSLLQLKFMDAMASTTRIVINTTFGMLGAIDLASDISQVSDIDISKRNEDFGQTLGFYGIGSGPYLVLPILGPSTVRDTVGIGVDSTIFHPARAIYTSFDLLTVRLPVTTVEFIDRREQLLDLDKTLEEASLDKYEFVRDAYLQRRESLIKNDGAASEEEPVNFDEEEIIIDD
MGSDKIHHHHHHVERIETHDATPGVVVEALTRGPGAICIRGLFSESQIAEARRVVMAHSEDRAQTVTHFQGQAAEEQRLHLQRRVWNLLAKGGVFSEMSEQPVIVGAMRRFLGDDFIMGSIAANRILPGGPGQEPHIDYPYWDYHMPDTFPLGINTSFALNAQVTIPLDPFTAETGATAFVPHTQHELRYPAEGDRFFERCQRMTAEPGDAIVFFGATWHCAMPNRSTQDRSAVLIQYLPKFVKPMEDLRAMVGEDFVRRASPTMRQLLGLNFPYPQNLDEIAVATNAEGRKNAMR
MGSDKIHHHHHHVGAGGRDVVWTPRSLYLTDFIHANLLEKLKMQTLIIYSTIDGQTLAICQKIKLFAEQAGENVSLVTLEQAEALSLADFDKVLIGASIRYGKYRPELYQFVNRHHAVLDTKINGFFSVNVVARKPLKNTPETNPYMQKFLKLSLWQPQHLAVFAGKIDYPKYSFFDRTMIRFIMWMTKGPTDINGTFEFTDWAKVDAFGTDFSHQ
MGSDKIHHHHHHVILKAKVYHKVFAFKDLKEVLAKANEEKSGDVLAGIGATSASERVAAKLVLSNLTLEDLYNHPVLPYEEDEVTRVIYDGLNLRIYQEMKGWTVGQLREYILDHGTTGSHLNHISRGLTSEMIAAVAKLMSNMDLVYGSKKMRHQAHCNTTIGIPGTLAFRCQPNHPTDSVEGVMASLKEGLSYGSGDAVIGINPVEDNVDTLSRLLETVKEFMQQWEIPTQNCVLAHITTQMKAITKGVPIDLVFQSIAGTQKANEAFGISKELIDEAFALIQRNGTATGPNLMYFETGQGSEISLAAHHGVDMMTLESRTYGFGRHYRPFLLNNVSGFIGPETIYSGREVIRADLEDLFMGKLHGLPMGIAPCYTNHMKADQNDQEIATLLCAMAGANYFMGLPGGDDVMLSYQDTSYHDDAATREILGLRPLPEFEKWLEKMGIMENGQLTERAGDPSVFDK
